EP0983376B1, “SCREENING ASSAYS FOR AGENTS THAT ALTER INHIBITOR OF APOPTOSIS (IAP) PROTEIN REGULATION OF CASPASE ACTIVITY” (The Burnham Institute, priority 1997, dated 1998)
One block for each molecule: values may come before it.

B2: purified recombinant active caspase-3 (His6-tagged) (enzyme)
chain 1: SGISLDNSYKMDYPEMGLCIIINNKNFHKSTGMTSRSGTDVDAANLRETFRNLKYEVRNKNDLTREEIVELMRDVSKEDHSKRSSFVCVLLSHGEEGIIFGTNGPVDLKKITNFFRGDRCRSLTGKPKLFIIQACRGTELDCGIETD
chain 2: SGVDDDMACHKIPVEADFLYAYSTAPGYYSWRNSKDGSWFIQSLCAMLKQYADKLEFMHILTRVNRKVATEFESFSFDATFHAKKQIPCIVSMLTKELYFYH
notes: domain: large subunit;domain: small subunit; also called His6-caspase-3; CPP32
B7: GST-c-IAP-1(BIR) (other, human, UniProt Q13490 1-350, looked up)
chain: MHKTASQRLFPGPSYQNIKSIMEDSTILSDWTNSNKQKMKYDFSCELYRMSTYSTFPAGVPVSERSLARAGFYYTGVNDKVKCFCCGLMLDNWKLGDSPIQKHKQLYPSCSFIQNLVSASLGSTSKNTSPMRNSFAHSLSPTLEHSSLFSGSYSSLSPNPLNSRAVEDISSSRTNPYSYAMSTEEARFLTYHMWPLTFLSPSELARAGFYYIGPGDRVACFACGGKLSNWEPKDDAMSEHRRHFPNCPFLENSLETLRFSISNLSMQTHAARMRTFMYWPSSVPVQPEQLASAGFYYVGRNDDVKCFCCDGGLRCWESGDDPWVEHAKWFPRCEFLIRMKGQEFVDEIQG
notes: range 1-350; not shown: glutathione S-transferase encoded by vector pGEX4T; vector linker not described

Key:
[1] = target: purified recombinant active caspase-7 (His6-tagged) (UniProt P55210); assay: progress curves of DEVD-AFC hydrolysis by caspase-7 (150 pM) with 0.025 to 1.5 µM IAP
[2] = tested on: pro-caspase-9 processing; assay: Cytochrome c-induced processing of pro-caspase-9 in 293 cell cytosolic extracts; assay type: biochemical; conditions: 10 µM cytochrome c, 1 mM dATP, 30 °C, 30 minutes
Protocol: For the results shown in Figure 4, in vitro translated ^35S-labeled pro-caspase-9 was added to cytosolic extracts from 293 cells, and subsequently incubated for 30 min at 30 °C with (lanes 2-6) or without (lane 1) 10 µM cytochrome c and 1 mM dATP in the presence or absence of 0.2 µM GST-IAP proteins or a GST control protein. Cytochrome c induced processing of pro-caspase-9 was subsequently monitored by SDS-PAGE and autoradiography.
Pro-caspase-9 inhibition by Ac-DEVD-fmk, zVAD-fmk and XIAP was compared as follows. In vitro translated ^35S-labeled pro-caspase-9 was added to cytosolic extracts from 293 cells containing 10 µM cytochrome c and 1 mM dATP. Samples were incubated at 30 °C for 30 minutes in the presence of the indicated concentrations of inhibitors. Proteins were separated on SDS-PAGE gels, dried directly, and exposed to film.

[3] = tested on: 293T cells; assay: Bax-induced apoptosis and caspase-3 processing in transfected 293T cells; assay type: cell-based, Human; conditions: PI staining, 24 hr; Bax expressing cells treated with 50 µM inhibitor (Bax alone about 25%)
Protocol: N-benzyloxycarbonyl-Val-Ala-Asp fluoromethylketone (zVAD-fmk; 50 µM) (Bachem California; Torrance CA) was added immediately after transfection of the Bax plasmid. Transfection efficiency was uniformly 80-90%, as determined by X-Gal staining following cotransfection with pCMV-βGal.
Cells were maintained in culture for 24 hr, then floating and attached cells were harvested and an aliquot was removed and the percent of dead cells was determined by either trypan blue or propidium iodide (PI) dye exclusion assay. A second aliquot was used to assess the percentage of apoptotic cells with subdiploid DNA content by FACS analysis of PI stained, ethanol fixed cells. The remaining cell pellets were lysed in 10 mM HEPES (pH 7.5), 142 mM KCl, 1 mM EGTA, 1 mM DTT, 0.2% NP-40, 0.1 mM PMSF and used for immunoblot analysis or for protease assays.

[4] = target: B2; assay: progress curves of DEVD-AFC hydrolysis by caspase-3 (7 pM) with 0.025 to 1.5 µM IAP
[5] = target: B7; assay: glutathione-SEPHAROSE affinity chromatography
[6] = target: T1, GST-c-IAP-1 (human, UniProt Q13490 1-618); assay: opening sentence of Example IV
T1 construct: domain: full length; also called HIAP-2; hMIHB; not shown: glutathione S-transferase encoded by vector pGEX4T; vector linker not described

[7] = target: T2, GST-c-IAP-2 (human, UniProt Q13489 1-604); assay: opening sentence of Example IV
T2 construct: domain: full length; also called HIAP-1; hMIHC; not shown: glutathione S-transferase encoded by vector pGEX4T; vector linker not described

[8] = target: T1, GST-c-IAP-1; assay: GST-IAP added to 293 extracts previously treated with cytochrome c, recovered on glutathione-Sepharose, anti-caspase-3 immunoblot
[9] = target: T2, GST-c-IAP-2; assay: as above
[10] = target: B2; assay: GST pull-down on glutathione-SEPHAROSE, immunoblot
[11] = target: T1, GST-c-IAP-1; assay: opening sentence of Example VI
[12] = target: T2, GST-c-IAP-2; assay: opening sentence of Example VI
[13] = target: T3, myc-tagged c-IAP-1 (human, UniProt Q13490 1-618); assay: legend of Figure 8: anti-myc immunoprecipitation, anti-FLAG immunoblot
T3 construct: also called pcDNA3myc-c-IAP-1; pcDNA3-myc-IAP-1; not shown: Myc tag of pcDNA3myc

[14] = target: T4, myc-tagged c-IAP-2 (human, UniProt Q13489 1-604); assay: as above
T4 construct: also called pcDNA3myc-c-IAP-2; pcDNA3-myc-c-IAP-2; not shown: Myc tag of pcDNA3myc

Molecule: GST-c-IAP-2 (from UniProt Q13489 1-604)
Ki [1]: 26 nM

Molecule: N-benzyloxycarbonyl-Val-Ala-Asp fluoromethylketone [zVAD-fmk]
concentration to completely abolish processing of pro-caspase-9 [2]: at least 5 µM
apoptotic cells [3]: about 5%

B1: GST-c-IAP-2(BIR) (other, human, UniProt Q13489 1-335, looked up)
chain: MNIVENSIFLSNLMKSANTFELKYDLSCELYRMSTYSTFPAGVPVSERSLARAGFYYTGVNDKVKCFCCGLMLDNWKRGDSPTEKHKKLYPSCRFVQSLNSVNNLEATSQPTFPSSVTNSTHSLLPGTENSGYFRGSYSNSPSNPVNSRANQDFSALMRSSYHCAMNNENARLLTFQTWPLTFLSPTDLAKAGFYYIGPGDRVACFACGGKLSNWEPKDNAMSEHLRHFPKCPFIENQLQDTSRYTVSNLSMQTHAARFKTFFNWPSSVLVNPEQLASAGFYYVGNSDDVKCFCCDGGLRCWESGDDPWVQHAKWFPRCEYLIRIKGQEFIRQVQ
notes: range 1-335; not shown: glutathione S-transferase encoded by vector pGEX4T; vector linker not described
Ki [1]: 238 nM
Ki [4]: 260 nM

Molecule: B2
binding result [5]: binds
binding result [6]: binds
binding result [7]: binds

B3: processed (active) caspase-3 of 293 cell cytosolic extracts treated with cytochrome c and dATP (enzyme, human)
chain 1: SGISLDNSYKMDYPEMGLCIIINNKNFHKSTGMTSRSGTDVDAANLRETFRNLKYEVRNKNDLTREEIVELMRDVSKEDHSKRSSFVCVLLSHGEEGIIFGTNGPVDLKKITNFFRGDRCRSLTGKPKLFIIQACRGTELDCGIETD
chain 2: SGVDDDMACHKIPVEADFLYAYSTAPGYYSWRNSKDGSWFIQSLCAMLKQYADKLEFMHILTRVNRKVATEFESFSFDATFHAKKQIPCIVSMLTKELYFYH
notes: domain: large subunit;domain: small subunit; Endogenous protein of the extract, detected with anti-caspase-3 antiserum that sees only the zymogen and the large subunit; also called processed caspase-3; band 3
binding result [8]: binds
binding result [9]: binds

Molecule: B7
Ki [1]: 160 nM
Ki [4]: 330 nM

Now from value to molecule:

binding result [10]: no binding
B4: GST-CD40 cytosolic domain (other, UniProt P25942 216-277, looked up)
chain: KKVAKKPTNKAPHPKQEPQEINFPDDLPGSNTAAPVQETLHGCQPVTQEDGKESRISVQERQ
notes: domain: cytosolic domain; Control protein; not shown: glutathione S-transferase

binding result [11]: binds
binding result [12]: binds
B5: in vitro translated 35S-labeled pro-caspase-9 (enzyme, UniProt P55211 1-416, looked up)
chain: MDEADRRLLRRCRLRLVEELQVDQLWDALLSRELFRPHMIEDIQRAGSGSRRDQARQLIIDLETRGSQALPLFISCLEDTGQDMLASFLRTNRQAAKLSKPTLENLTPVVLRPEIRKPEVLRPETPRPVDIGSGGFGDVGALESLRGNADLAYILSMEPCGHCLIINNVNFCRESGLRTRTGSNIDCEKLRRRFSSLHFMVEVKGDLTAKKMVLALLELAQQDHGALDCCVVVILSHGCQASHLQFPGAVYGTDGCPVSVEKIVNIFNGTSCPSLGGKPKLFFIQACGGEQKDHGFEVASTSPEDESPGSNPEPDATPFQEGLRTFDQLDAISSLPTPSDIFVSYSTFPGFVSWRDPKSGSWYVETLDDIFEQWAHSEDLQSLLLRVANAVSVKGIYKQMPGCFNFLRKKLFFKTS
modifications: 35S-L-methionine labeled
notes: domain: zymogen; also called zymogen of caspase-9; Mch6

binding result [13]: binds
binding result [14]: binds
B6: FLAG tagged pro-caspase-9 (enzyme, UniProt P55211 1-416, looked up, not shown: small tags and cut ends)
chain: MDEADRRLLRRCRLRLVEELQVDQLWDALLSRELFRPHMIEDIQRAGSGSRRDQARQLIIDLETRGSQALPLFISCLEDTGQDMLASFLRTNRQAAKLSKPTLENLTPVVLRPEIRKPEVLRPETPRPVDIGSGGFGDVGALESLRGNADLAYILSMEPCGHCLIINNVNFCRESGLRTRTGSNIDCEKLRRRFSSLHFMVEVKGDLTAKKMVLALLELAQQDHGALDCCVVVILSHGCQASHLQFPGAVYGTDGCPVSVEKIVNIFNGTSCPSLGGKPKLFFIQACGGEQKDHGFEVASTSPEDESPGSNPEPDATPFQEGLRTFDQLDAISSLPTPSDIFVSYSTFPGFVSWRDPKSGSWYVETLDDIFEQWAHSEDLQSLLLRVANAVSVKGIYKQMPGCFNFLRKKLFFKTS
notes: domain: zymogen; also called Flag-pro-caspase-9; FLAG-caspase-9
